# Publication PMC6223037, “Dye-decolorizing peroxidases in Irpex lacteus combining the catalytic properties of heme peroxidases and laccase play important roles in ligninolytic system” (Biotechnology for Biofuels, 2018)
# Legend:
# purified protein = substrate: COc1ccccc1O; assay: purified protein; settings: 50 mM sodium tartrate
# [1] = substrate: CCn1c(=NN=c2sc3cc(S(=O)(=O)O)ccc3n2CC)sc2cc(S(=O)(=O)O)ccc21; assay: peroxidase oxidation, spectrophotometric; nonlinear fit; format: biochemical, Irpex lacteus; settings: pH 3, 25 °C, 50 mM sodium tartrate, co-substrate H2O2
# Excerpt: (§1) peroxidase oxidation, spectrophotometric; nonlinear fit on IlDyP2
# [2] = substrate: COc1cccc(OC)c1O; assay: as above; format: biochemical, Irpex lacteus; settings: pH 3, 25 °C, 50 mM sodium tartrate, co-substrate H2O2
# Excerpt: as §1
# [3] = substrate: CCn1c(=NN=c2sc3cc(S(=O)(=O)O)ccc3n2CC)sc2cc(S(=O)(=O)O)ccc21; assay: as above; format: biochemical, Irpex lacteus; settings: pH 4, 25 °C, 50 mM sodium tartrate, co-substrate H2O2
# Excerpt: (§2) peroxidase oxidation, spectrophotometric; nonlinear fit on IlDyP1
# [4] = substrate: COc1cccc(OC)c1O; assay: as above; format: biochemical, Irpex lacteus; settings: pH 4, 25 °C, 50 mM sodium tartrate, co-substrate H2O2
# Excerpt: as §2
# [5] = pH 3, 25 °C, co-substrate H2O2, pH 3.0
# [6] = pH 4, 25 °C, co-substrate H2O2, pH 4.0
Protein,Km (purified protein; [5]),kcat (purified protein; [5]),kcat/Km (purified protein; [5]),Km [1],kcat [1],kcat/Km [1],Km [2],kcat [2],kcat/Km [2],Km [3],kcat [3],kcat/Km [3],Km [4],kcat [4],kcat/Km [4],Km (purified protein; [6]),kcat (purified protein; [6]),kcat/Km (purified protein; [6])
IlDyP2 (Irpex lacteus) (protein) YHVKRARSSPLIGSFPGQPPLPTIAEVQSSSAGNDSLPFENIQGDILVGMKKDKEKFVFFHINNATTFKSFLKTYAPANITSVQTIIGPASGQPQAFVNLAFSHTGFGALGVADDLQDTAFTAGQFADAPSFGDDTSTWEEAFKGTNVDGVFLIGSDDVTTTNQYRDDLKAKLGDAWTVLLDLDSAARPGAEKGHEHFGYLDGISNPTIPGFGTPFPGQAVVDSGVIFAGRTNDPVTNRPSWALDGSFLVFRKLKQLVPEFHKWTLDNALQNQAGNLTVEEGALLLGSRMFGRWNSGAPIDLTPDVDDPTLGNDPQRNNDFNYIHPGEDLTTDETRCPFTAHVRKTNPRDLEAQGLIPDLFHAIRAGTPYGPEVTDAESNSNTTSIDRGLAFVEYQSVISNGFRFQQLNWANNANFPFNKSEPLGLDPVIGQGTRQTFGLDPRNASDSLTIPQIIISNGGEYFFSPSITALVEHFGA,229.1 ± 15.9 µM,49.7 s⁻¹,220000 M⁻¹ s⁻¹,125.0 ± 1.4 µM,396 s⁻¹,3.2e+06 M⁻¹ s⁻¹,1631.7 ± 10.9 µM,561 ± 19.3 s⁻¹,340000 ± 20000 M⁻¹ s⁻¹,–,–,–,–,–,–,–,–,–
IlDyP1 (Irpex lacteus) (protein) YHVKRARTTSLLGSFPGQGALPTVAQVQSTSSGNDSLPLENIQGDILVGMKKQKEQFVFFHINNATTFKKVLKTYAPANITSIQTLLSAPSAQPLAFVNLAFSQSGATALGVTDDLGDSFFSAGQFADASALGDDTSNWDSTFTGTDVHGVFLIGSDETSFVEQYQSDLEAKLGDAWTVSLTIASAARPGDEAGHEHFGYLDGISNPTITGFGTALPGQSVVDPGIILAGRTGDTVSRPSWALDGSFLVFRKLKQLVPEFNKWTLANAIQNASGNLTAQEGADLLGSRMFGRWKSGAPIDLSPDVDDASLGTDPQRNNNFNYTHAGSDITSDESRCPFSAHIRKTNPRDLESVIGHANHAIRAGTPYGPELTDDESSSGTTSTDRGLAFVEYQSNIGNGFRTQQEVWANAAAFPFGKTESIGLDPVIGQGDRTTYGLNAQNVTESYSVPSFVISNGGEYFFSPSITALVETFAA,–,–,–,–,–,–,–,–,–,693.1 ± 8.5 µM,356 ± 11.2 s⁻¹,510000 ± 10000 M⁻¹ s⁻¹,892.7 ± 81.5 µM,199 ± 12.6 s⁻¹,220000 ± 10000 M⁻¹ s⁻¹,592.1 ± 53.0 µM,49.2 s⁻¹,83000 M⁻¹ s⁻¹
